Assay in all cases: SPR, KD relative to WT C2
The target in one experiment is T1, human C2 D269A (human, UniProt P06681 21-752).
T1 sequence: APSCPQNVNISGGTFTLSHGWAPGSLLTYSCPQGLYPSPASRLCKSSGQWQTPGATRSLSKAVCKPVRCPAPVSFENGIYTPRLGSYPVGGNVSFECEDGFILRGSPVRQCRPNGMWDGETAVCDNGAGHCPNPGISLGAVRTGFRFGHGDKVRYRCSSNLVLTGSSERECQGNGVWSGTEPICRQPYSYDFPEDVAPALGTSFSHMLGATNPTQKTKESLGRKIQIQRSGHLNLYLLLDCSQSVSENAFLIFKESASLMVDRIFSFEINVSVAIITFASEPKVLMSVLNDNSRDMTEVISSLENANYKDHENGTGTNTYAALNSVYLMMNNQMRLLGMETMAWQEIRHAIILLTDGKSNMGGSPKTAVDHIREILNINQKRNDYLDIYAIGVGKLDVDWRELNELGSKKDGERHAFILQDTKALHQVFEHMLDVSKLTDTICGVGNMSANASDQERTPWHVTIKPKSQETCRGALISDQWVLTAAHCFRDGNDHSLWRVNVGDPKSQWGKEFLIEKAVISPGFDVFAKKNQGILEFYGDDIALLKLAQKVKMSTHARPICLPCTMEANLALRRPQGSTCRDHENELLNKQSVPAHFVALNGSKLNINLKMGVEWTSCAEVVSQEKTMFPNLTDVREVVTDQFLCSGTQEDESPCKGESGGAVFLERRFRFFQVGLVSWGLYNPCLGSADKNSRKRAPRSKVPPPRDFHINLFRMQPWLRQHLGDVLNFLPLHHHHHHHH

A further experiment concerns the target T2, human C2 L620A (human, UniProt P06681 21-752).
T2 sequence: T1 sequence with A249D, L600A

Another experiment addresses T3, human C2 F437A (human, UniProt P06681 21-752).
T3 sequence: T1 sequence with A249D, F417A

In a further experiment the target is T4, human C2 H446A (human, UniProt P06681 21-752).
T4 sequence: T1 sequence with A249D, H426A

Residue numbers refer to the chain shown, from its start.

B1: RF16-242 (antibody, human IgG4 S228P, lambda, V domains shown)
VH: EVQLLQSGAEVKKPGESLKISCKGSGYSFTSYWIGWVRQMPGKGLEWMGIIYPGDSDTRYSPSFQGQVTISADKSISTAYLQWSSLKASDTAMYYCARRGHYGDYFDYWGQGTLVTVSS
VL: SYELTQPPSVSVSPGQTARITCSGDALPKKYAYWYHQKSGQAPVLVIYEDRRRPSEIPERFSGSSSGTMATLTITGAQVEDEGVYFCYSRDRAGNQRVFGGGTQLTVLG
notes: pH-dependent anti-C2 antibody from a phage display library
Molecule B1 displayed a Fold diff with human C2 D269A of 2 fold.

B2: RF16-226 (antibody, human IgG4 S228P, lambda)
heavy: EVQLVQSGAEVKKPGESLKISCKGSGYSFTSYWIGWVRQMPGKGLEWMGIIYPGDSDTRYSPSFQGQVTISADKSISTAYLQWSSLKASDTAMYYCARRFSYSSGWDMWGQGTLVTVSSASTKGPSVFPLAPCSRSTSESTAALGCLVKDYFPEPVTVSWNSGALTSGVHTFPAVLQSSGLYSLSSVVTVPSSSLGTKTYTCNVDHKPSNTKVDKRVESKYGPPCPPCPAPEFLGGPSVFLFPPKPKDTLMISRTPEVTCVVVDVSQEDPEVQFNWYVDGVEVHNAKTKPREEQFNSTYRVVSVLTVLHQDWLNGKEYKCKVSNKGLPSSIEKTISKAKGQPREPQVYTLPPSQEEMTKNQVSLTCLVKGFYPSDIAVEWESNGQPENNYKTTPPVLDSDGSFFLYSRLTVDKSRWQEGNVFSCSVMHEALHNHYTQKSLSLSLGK
light: SYELTQPPSVSVSPGQTARITCSGDALTSKYVAWYQQKSGLAPLLVIYEDTRRPSGIPAKFSGSSSGSVATLTISGAHGDDEADYYCYSTDASGHQRVFGGGTKLTVLSQPKAAPSVTLFPPSSEELQANKATLVCLISDFYPGAVTVAWKADGSPVKAGVETTKPSKQSNNKYAASSYLSLTPEQWKSHRSYSCQVTHEGSTVEKTVAPTECS
notes: pH-dependent anti-C2 antibody from a phage display library; also called WT
B2: the Fold diff in the experiment with human C2 L620A stood at 1 fold; with human C2 F437A it was 26 fold; with human C2 H446A, 2 fold.

Values taken from patent US20220332804A1 (CSL INNOVATION, published 2022).
